The supplement of paper PMC10126150
± gives the standard deviation of the averaged measurements.

System: ATP
Experiment: switch fluorescence ratio, 500 uM ATP over buffer (Cy3 cluster intensity, sum of 5 cycles each) (fold (ratio)); higher = stronger signal-on switching upon ATP binding; sequences stand for … in TCGTCGGCAGCGTCAGATGTGTATAAGAGACAGTTTTTTTTTTTTTTTTTTTTTTTTT…TC
Settings: aptamer strand: ATP DNA aptamer (quencher-CACCTGGGGGAGTATTGCGGAGGAAGG + anchor), 100 nM annealed; ATP concentration: 500 uM
Summary of the method: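 Cy3-labelled switching-strand clusters on a modified Illumina MiSeq flow-cell were annealed to 100 nM quencher-labelled ATP aptamer and imaged first in selection buffer, then after 15 min with 500 uM ATP at 22 °C. NaOH stripping and re-annealing separated each of five buffer/ATP cycles, and clusters outside 100-1000 RFU were excluded. The fluorescence ratio sums target-cycle Cy3 intensity over buffer-cycle Cy3 intensity per cluster and averages it per switch-domain sequence.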
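Also: ATP exposure 15 min at 22 °C before imaging.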

Sequence	switch fluorescence ratio
GATTAGGCTC	1.03 ± 0.082
GATTATAGGT	1.01 ± 0.015
GATTATGGCG	1.047 ± 0.0054
GATTATTCGT	0.99 ± 0.028
GATTATTGTA	0.9762 ± 0.0045
GATTCAGGAG	1 ± 0.032
GATTCAGGGT	1 ± 0.024
GATTCCGAGC	1.44 ± 0.53
GATTCGCCTG	0.99 ± 0.016
GATTCGGGCG	1 ± 0.069
GATTCGGGGT	1 ± 0.017
GATTCGTGGC	0.906 ± 0.14
GATTCTCCGT	1.16 ± 0.016
GATTCTGGCA	0.9715 ± 0.0057
GATTCTTTTC	0.991 ± 0.014
GATTGACAAT	1.03 ± 0.031
GATTGAGAGT	1.019 ± 0.0087
GATTGAGGTC	0.989 ± 0.037
GATTGATGTG	0.995 ± 0.037
GATTGATTTT	1.02 ± 0.044
GATTGCCGAT	1 ± 0.034
GATTGCCGGT	1.01 ± 0.015
GATTGGAGCA	1.02 ± 0.034
GATTGGGGGT	0.982 ± 0.03
GATTGGGTAC	1.03 ± 0.025

Sequence	switch fluorescence ratio
GATTGGTAAT	0.996 ± 0.028
GATTGGTGAG	1.001 ± 0.0046
GATTGGTGGG	1.003 ± 0.0041
GATTGGTGTG	0.997 ± 0.024
GATTGGTTAT	0.962 ± 0.029
GATTGTAATA	1.01 ± 0.034
GATTGTAGTT	0.9586 ± 0.0034
GATTGTGAT	1.01 ± 0.04
GATTGTTCTC	0.981 ± 0.011
GATTGTTGGA	1.02 ± 0.037
GATTGTTTGT	1.03 ± 0.067
GATTGTTTTG	1.01 ± 0.034
GATTTACGTG	1.02 ± 0.012
GATTTAGGCA	0.986 ± 0.015
GATTTAGGTT	0.999 ± 0.015
GATTTATAAT	1.014 ± 0.0029
GATTTCCAGG	1.2 ± 0.024
GATTTCCGTG	0.98686 ± 0.00065
GATTTCGATT	0.969 ± 0.012
GATTTCTGCT	0.974 ± 0.021
GATTTGCAGA	1 ± 0.024
GATTTGCCGG	0.995 ± 0.013
GATTTGCCTG	0.968 ± 0.036
GATTTGGGAC	1.03 ± 0.05
GATTTGGGGA	0.988 ± 0.028

Sequence	switch fluorescence ratio
GATTTGGTGT	1.03 ± 0.057
GATTTGTGCA	0.9952 ± 0.0014
GATTTTACTT	1.03 ± 0.015
GATTTTGCCA	0.9675 ± 0.0045
GATTTTGGCC	0.959 ± 0.037
GATTTTGGTT	0.998 ± 0.014
GATTTTGTAC	1.012 ± 0.0043
GATTTTTAGC	1 ± 0.065
GATTTTTGGT	0.995 ± 0.028
GATTTTTTGT	0.99 ± 0.028
GATTTTTTTC	0.98 ± 0.05
GCAAAAATGG	1.02 ± 0.038
GCAAAACGTA	1.012 ± 0.009
GCAAAAGGTT	1.01 ± 0.022
GCAAAATCTG	1.04 ± 0.06
GCAAACTAGG	1.11 ± 0.17
GCAAACTCTG	1.12 ± 0.15
GCAAATGGGA	1.05 ± 0.017
GCAAATGGGG	1.02 ± 0.033
GCAAATGTAT	1.004 ± 0.0037
GCAACAATGG	1.08 ± 0.02
GCAACATTTT	1.01 ± 0.043
GCAACGTCAA	1.07 ± 0.076
GCAACGTTCC	1.96 ± 1.4
GCAAGAACTA	1.042 ± 0.0016

Sequence	switch fluorescence ratio
GCAAGATCGC	1.09 ± 0.02
GCAAGCGGGA	1.07 ± 0.079
GCAAGGAGGG	1.05 ± 0.14
GCAAGGGGTT	1 ± 0.063
GCAAGGTAAA	1.01 ± 0.037
GCAAGTAGAG	1.0067 ± 0.001
GCAAGTCTGA	1.03 ± 0.019
GCAAGTTGAT	0.96591 ± 0.00067
GCAAGTTTCA	0.996 ± 0.034
GCAATAATCG	1.98 ± 1.4
GCAATAATTA	1.1 ± 0.046
GCAATATGTA	1.62 ± 0.11
GCAATGAACC	1.84 ± 0.078
GCAATGGGTG	1.35 ± 0.027
GCAATTCAGA	1.064 ± 0.0099
GCAATTGGGA	1.05 ± 0.017
GCAATTGTTT	1.02 ± 0.039
GCAATTTTAG	1.03 ± 0.035
GCAATTTTTT	1.03 ± 0.032
GCACAAGTTG	1.02 ± 0.019
GCACACGGGG	1.01 ± 0.07
GCACATGAAC	1.1 ± 0.022
GCACGAGGAA	1.043 ± 0.0063
GCACGCGAAG	1.04 ± 0.024
GCACGGAGGG	1.01 ± 0.023

Sequence	switch fluorescence ratio
GCACGGGACT	1.184 ± 0.011
GCACGGGAGG	1.01 ± 0.032
GCACGGGGCG	1.03 ± 0.034
GCACGTGACC	1.47 ± 0.048
GCACGTGCGT	1.02 ± 0.035
GCACTGGTGG	1.02 ± 0.032
GCACTGTGGG	1 ± 0.016
GCACTTGTTT	1 ± 0.028
GCACTTTACG	1.28 ± 0.06
GCAGAAAAAT	1.04 ± 0.023
GCAGAGGGGG	1.04 ± 0.029
GCAGAGGGTG	1.13 ± 0.086
GCAGATCGAT	1.03 ± 0.015
GCAGCATGTG	1.04 ± 0.026
GCAGCCGAAT	1.04 ± 0.0093
GCAGCTGGTG	1.098 ± 0.00094
GCAGCTGTTT	1.02 ± 0.044
GCAGGAAGTC	0.994 ± 0.0039
GCAGGAATGG	1.113 ± 0.0098
GCAGGAGTGG	0.9929 ± 0.0088
GCAGGCCTGA	1.01 ± 0.029
GCAGGCTACA	1.02 ± 0.019
GCAGGGAAGG	1.03 ± 0.035
GCAGGGAATT	1 ± 0.045
GCAGGGATTG	0.9734 ± 0.0058

Sequence	switch fluorescence ratio
GCAGGGCGCC	1.01 ± 0.026
GCAGGGGGAA	1.08 ± 0.053
GCAGGGGGCA	1.024 ± 0.01
GCAGGGGGGG	1.05 ± 0.054
GCAGGGGGTT	1 ± 0.028
GCAGGTGGTG	1.08 ± 0.062
GCAGTAAAAC	1.694 ± 0.013
GCAGTATACC	1.15 ± 0.019
GCAGTCACAG	1.03 ± 0.029
GCAGTGAGGG	0.991 ± 0.028
GCAGTGGGGA	1 ± 0.031
GCAGTGTACG	0.997 ± 0.0087
GCAGTTAGCC	1.01 ± 0.034
GCAGTTGGGA	1.02 ± 0.011
GCAGTTTTAG	0.999 ± 0.027
GCATAATGAT	1 ± 0.022
GCATAATGGG	1.008 ± 0.0057
GCATAGGGAA	1 ± 0.015
GCATAGGGAT	0.988 ± 0.022
GCATATTGGG	0.9866 ± 0.0042
GCATCAAGTG	0.988 ± 0.034
GCATCACGAG	1.08 ± 0.03
GCATCAGGGA	1.02 ± 0.035
GCATGAAGCA	1 ± 0.017
GCATGAATCT	1.014 ± 0.0084

Sequence	switch fluorescence ratio
GCATGACTTT	1.06 ± 0.028
GCATGAGGTG	1.08 ± 0.021
GCATGCAGGG	1.01 ± 0.045
GCATGCGCTC	1.05 ± 0.052
GCATGGGGCC	1 ± 0.011
GCATGGGTGG	1 ± 0.023
GCATGTACTC	3.36 ± 0.63
GCATTAAAGG	0.981 ± 0.04
GCATTATCCA	1.01 ± 0.031
GCATTGGGGT	0.994 ± 0.012
GCATTGGTCA	1.027 ± 0.0076
GCATTGTCAA	0.992 ± 0.07
GCATTGTGTT	0.991 ± 0.052
GCATTTGGGA	0.99 ± 0.012
GCATTTGGTT	1.01 ± 0.012
GCATTTTACA	1 ± 0.013
GCATTTTATA	1.02 ± 0.012
GCATTTTTTT	0.996 ± 0.032
GCCAAAGACA	0.9573 ± 0.0053
GCCAAAGATT	1 ± 0.029
GCCAATGGGC	1 ± 0.051
GCCAATTGCA	0.97965 ± 0.00047
GCCACACAAT	1.022 ± 0.0014
GCCACAGCTG	1 ± 0.013
GCCACGTCAA	1.06 ± 0.067

Sequence	switch fluorescence ratio
GCCAGAGATA	1.0422 ± 0.00051
GCCAGAGTG	2 ± 0.44
GCCAGCCGAC	1.2 ± 0.032
GCCAGGAAAA	0.957 ± 0.053
GCCAGGCCGA	0.979 ± 0.034
GCCAGGGCGC	1.02 ± 0.018
GCCAGGGGGG	1.01 ± 0.029
GCCAGTTTGT	0.9807 ± 0.0052
GCCATAGCCT	0.9953 ± 0.0084
GCCATAGGTC	1.012 ± 0.0043
GCCATCAATA	1.03 ± 0.023
GCCATCAGAG	0.973 ± 0.0044
GCCATCGGGG	1.03 ± 0.012
GCCATTGTGG	0.99 ± 0.019
GCCATTTTGG	0.993 ± 0.013
GCCCAATATC	2.68 ± 0.053
GCCCAATTTT	0.998 ± 0.034
GCCCAGACGG	1.31 ± 0.41
GCCCCACCTT	1.08 ± 0.021
GCCCCCAGCG	4.61 ± 0.65
GCCCCGTTTG	1.0184 ± 0.00021
GCCCGACTCT	1.01 ± 0.041
GCCCGGGATT	1 ± 0.012
GCCCTAAGGC	0.979 ± 0.054
GCCCTCCAGA	1.14 ± 0.13
